Assay results published in PMC6582535.

Biological target: Cholecystokinin type B receptor (mouse (endogenous in DRG)) (UniProt P56481)
Chain of UniProt P56481 (P56481 whole entry): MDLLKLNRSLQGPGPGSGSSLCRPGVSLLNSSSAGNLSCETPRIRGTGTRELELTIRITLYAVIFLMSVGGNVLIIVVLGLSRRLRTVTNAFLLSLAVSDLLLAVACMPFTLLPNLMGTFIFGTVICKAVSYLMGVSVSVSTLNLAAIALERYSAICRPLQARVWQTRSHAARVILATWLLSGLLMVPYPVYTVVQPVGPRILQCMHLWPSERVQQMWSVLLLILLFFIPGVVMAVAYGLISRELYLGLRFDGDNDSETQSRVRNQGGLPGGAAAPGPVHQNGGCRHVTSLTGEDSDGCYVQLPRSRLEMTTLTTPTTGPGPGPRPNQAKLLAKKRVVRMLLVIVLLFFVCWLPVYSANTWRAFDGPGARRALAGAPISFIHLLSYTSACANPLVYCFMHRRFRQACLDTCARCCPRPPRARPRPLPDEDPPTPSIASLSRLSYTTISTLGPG

percent decrease of A-type K+ current (IA) in small-sized mouse DRG neurons at 300 nM CCK-4: 32.2%
Substance: CCK-4 (peptide)
